Reference: patent publication US20180346555A1 (Regeneron, published 2018)
One block for each binder: values may come before it.

Columns and labels:
natural Bet v 1 [1] = target: T1, natural Bet v 1 (Betula verrucosa (Betula pendula), UniProt P15494 2-160); assay: SPR Biacore 4000, mAb captured on anti-human Fc, 25C;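 note: purified anti-Bet v 1 mAbs probed with natural Bet v 1 in HBS-ET buffer (HEPES, NaCl, EDTA, Tween-20) at pH 7.4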
T1 construct: Bought natural protein; also called nBet v 1
T1 chain: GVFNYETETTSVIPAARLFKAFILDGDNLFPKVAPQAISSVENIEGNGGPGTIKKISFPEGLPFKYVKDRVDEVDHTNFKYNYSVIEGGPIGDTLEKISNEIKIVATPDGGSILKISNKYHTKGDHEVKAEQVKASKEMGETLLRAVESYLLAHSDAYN

natural Bet v 1 [2] = target: T1, natural Bet v 1; assay: SPR Biacore 4000, mAb captured on anti-human Fc, 37C;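 note: kinetic rate constants from SPR sensorgrams fitted to a 1:1 model with mass transport limitation, HBS-ET buffer pH 7.4, KD and t½ derived from the rate constants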
natural Bet v 1 [3] = target: T1, natural Bet v 1; assay: SPR Biacore 4000, mAb captured on anti-human Fc, 37C; 37 C;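 for 100 nM natural Bet v 1 Bound (RU): kinetic rate constants from SPR sensorgrams fitted to a 1:1 model with mass transport limitation, HBS-ET buffer pH 7.4, KD and t½ derived from the rate constants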;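 for t½: kinetic rate constants from SPR sensorgrams fitted to a 1:1 model with mass transport limitation, HBS-ET buffer pH 7.4, KD and t½ derived from the rate constants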
[4] = target: T2, Hazel (Cor A 1, MyBiosource, Cat# MBS5304600) (Hazel, UniProt Q08407 2-160, limits assumed); assay: SPR Biacore 4000, mAb captured by anti-human Fc, 25 C;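 note: allergen analyte binding to captured, purified anti-Bet v 1 monoclonal antibodies, SPR in HEPES-buffered saline running buffer with EDTA and Tween-20 at pH 7.4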
T2 construct: Bought reagent
T2 sequence (looked up): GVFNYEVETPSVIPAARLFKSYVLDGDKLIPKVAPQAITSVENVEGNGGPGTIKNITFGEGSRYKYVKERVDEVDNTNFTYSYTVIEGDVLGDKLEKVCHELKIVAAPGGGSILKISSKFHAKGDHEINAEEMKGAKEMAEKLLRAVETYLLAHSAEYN

natural Bet v 1 [5] = target: T1, natural Bet v 1; assay: cell-based or functional assay
[6] = target: T3, natural Bet v 1 (Indoor Biotechnologies, # NA-BV1-1) (Betula verrucosa (Betula pendula), UniProt P15494 2-160, biotin labeled in the IgE blocking ELISA (Tables 12-14); unlabeled in the SPR of Table 18); assay: blocking ELISA, captured IgE of donor 23035-BL, 1 ug/mL each antibody
T3 construct: Bought natural allergen purified from birch pollen; also called nBet v 1; Biotinylated Bet v 1
T3 chain: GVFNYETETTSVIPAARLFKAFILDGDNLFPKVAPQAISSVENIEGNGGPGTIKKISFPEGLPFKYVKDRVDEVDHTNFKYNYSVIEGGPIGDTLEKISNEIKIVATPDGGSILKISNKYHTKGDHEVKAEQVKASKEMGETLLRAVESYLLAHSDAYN

[7] = target: T3, natural Bet v 1 (Indoor …); assay: blocking ELISA, captured IgE of donor 25340-RR, 1 ug/mL each antibody
[8] = target: T3, natural Bet v 1 (Indoor …); assay: blocking ELISA, captured IgE of donor 23939-MH, 1 ug/mL each antibody
[9] = target: T3, natural Bet v 1 (Indoor …); assay: blocking ELISA, captured IgE of donor 29718-MW, 1 ug/mL each antibody
[10] = target: T3, natural Bet v 1 (Indoor …); assay: blocking ELISA, captured IgE of donor 25299-RJ, 1 ug/mL each antibody
[11] = target: T3, natural Bet v 1 (Indoor …); assay: blocking ELISA, captured IgE of donor 26532-CC, 1 ug/mL each antibody
[12] = target: T3, natural Bet v 1 (Indoor …); assay: dose-response blocking ELISA, captured IgE of donor 25609-MS, at 1 ug/mL each antibody
[13] = target: T3, natural Bet v 1 (Indoor …); assay: blocking ELISA, captured IgE of donor 25414-CW, 1 ug/mL each antibody
[14] = target: T3, natural Bet v 1 (Indoor …); assay: blocking ELISA, captured IgE of donor 25609-MS, 1 ug/mL each antibody
[15] = target: T3, natural Bet v 1 (Indoor …); assay: dose-response blocking ELISA, captured IgE of donor 25340-RR, at 1 ug/mL each antibody
[16] = target: T3, natural Bet v 1 (Indoor …); assay: dose-response blocking ELISA, captured IgE of donor 23939-MH, at 1 ug/mL each antibody

B1: H4H17031P (antibody, human IgG4, V domains shown)
VH: QVQLQQWGAGLLKPSETLSLTCVVYGESFGNYHWNWIRQSPGKRLEWIGEINQNGHTNYNPSLKSRVTISVDTSKIQFSLRLNSVTAADTAVYFCARGHNYVNSYFGLDVWGQGTTVTVSS
VL: EIVMTQSPATLSVSPGERATLSCRTSQSVSISLAWYQRKPGQAPRLLIFGSSTRATGVPARFSGSGSGTEFTLTISSLQSEDFAVYYCQQYNNWPYTFGQGTKLEIK
100 nM natural Bet v 1 Bound (RU) (natural Bet v 1 [1]): 54 RU | Kd (natural Bet v 1 [1]): 13.5 nM | koff (natural Bet v 1 [1]): 0.00168 s⁻¹ | kon (natural Bet v 1 [1]): 124000 M⁻¹ s⁻¹ | t½ (natural Bet v 1 [1]): 6.8 min | 100 nM natural Bet v 1 Bound (RU) (natural Bet v 1 [2]): 63 RU | t½ (natural Bet v 1 [2]): 2.1 min | Kd (natural Bet v 1 [3]): 27.9 nM | koff (natural Bet v 1 [3]): 0.00544 s⁻¹ | kon (natural Bet v 1 [3]): ~195000 M⁻¹ s⁻¹

B2: H4H17031P (antibody, human IgG4, V domains shown)
VH: QVQLQQWGAGLLKPSETLSLTCVVYGESFGNYHWNWIRQSPGKRLEWIGEINQNGHTNYNPSLKSRVTISVDTSKIQFSLRLNSVTAADTAVYFCARGHNYVNSYFGLDVWGQGTTVTVSS
VL: EIVMTQSPATLSVSPGERATLSCRTSQSVSISLAWYQRKPGQAPRLLIFGSSTRATGVPARFSGSGSGTEFTLTISSLQSEDFAVYYCQQYNNWPYTFGQGTKLEIK
notes: Fully human antibody with human IgG4 Fc (H4H prefix)
100 nM Analyte Bound (RU) [4]: 0 RU | binding result [4]: no binding (tested: 100 nM)

B3: H4H17033P (antibody, human IgG4, V domains shown)
VH: QVQLVQSGAEVKKPGASVKVSCKASGYTFAAHYMHWVRQAPGQGLEWMGWINTYTGGTNYGQKFQGRVTMTRDTSITTAYMELSRLRSDDTAVYYCARDRRNWNFVFEYWGQGTLVTVSS
VL: DIQMTQSPSSLSASVGDRVTISCRASQNIKNYLNWYQQKPGKAPKLLIYEASNLQSGAPSRFSGSGSGTDFTLTISSLEPEDFATYYCQQSFSIPWTFGQGTKVEIK
notes: as for B2
100 nM Analyte Bound (RU) [4]: 0 RU | binding result [4]: no binding (tested: 100 nM)

B6: H4H17038P2 (antibody, human IgG4 S228P, kappa, V domains shown)
VH: EVQLVESGGDLVQPGGSLRLSCAASGFTFSSYEMNWVRQAPGKGLEWVSFISDSSSNIYYADSVKGRFTISRDNAKKSLYLQMTSLRAEDTAVYYCAREAIGSTSFDNWGQGTLVTVSS
VL: EIVMTQSPATLSVSPGERATLSCRASQSVSSSLAWYQQKPGQAPRRLIYSASTRATGIPARFSGSGSGTEFTLTISSLQSEDFAIYYCHQYNNWPLTFGGGTKVEIKR
notes: human IgG4 Fc; also called REGN5714; MAB3
100 nM Analyte Bound (RU) [4]: 0 RU | binding result [4]: no binding (tested: 100 nM)

B7: H4H17028P (antibody, human IgG4, V domains shown)
VH: QVQLVESGGGVVQPGRSLRLSCAASGFTFSRYAIHWVRQAPGKGLEWVAVISYDGDDKYYGDSVKGRFTISRDNSKTMVYLHMNSLRTEDTAVYYCAKDGYSLYGKDYFDYWGQGTLVTVSS
VL: EIVLTQSPGTLPLSPGERATLSCRASQSITNSYLAWYQQKPDQAPRLLIYGASSRATGIPDRFSGSESGTDFTLTISRLEPEDFAVYYCQQYVRSPWTFGQGTKVEIK
notes: as for B2
100 nM Analyte Bound (RU) [4]: 0 RU | binding result [4]: no binding (tested: 100 nM)

B8: H4H17027P (antibody, human IgG4, V domains shown)
VH: EVQLVESGGGLVQPGGSLRLSCAASGFTFRNYAMHWVRQAPGEGLEWVAAIYRNSDSIDYADSVKGRFTISRDNAKNSLYLQMNSLKTEDTALYYCAKDEGFLEYFDSWGQGTLVTVSS
VL: EIVLTQSPGTLSLSPGERASLSCRASQSVSSSFLAWYQQKPGQAPRLLIYGVSSRFIGIPDRFSGGGSGTDFTLTITRLEPEDFAVYYCQQYGRSPWTFGQGTKVEIK
notes: as for B2
100 nM Analyte Bound (RU) [4]: 0 RU | binding result [4]: no binding (tested: 100 nM)

Results, then the binder that gave them:

100 nM Analyte Bound (RU) [4]: -1 RU
B4: H4H17067P2 (antibody, human IgG4, V domains shown)
VH: EVQLVQSGAEVKKPGESLKISCSGSGYRFTNYWIAWVRQMPGKGLEWMGLIHPDDSDIRYSPSFQGQVTFSVDKSINTAYLQWSSLKASDTAMYYCTRQDGILWSHNAWFDPWGQGTLVTVSS
VL: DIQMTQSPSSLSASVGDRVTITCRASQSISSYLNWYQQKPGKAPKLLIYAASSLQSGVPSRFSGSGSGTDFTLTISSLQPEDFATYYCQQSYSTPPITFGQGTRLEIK
notes: as for B2

100 nM Analyte Bound (RU) [4]: 0 RU | binding result [4]: no binding (tested: 100 nM)
B5: H4H17045P2 (antibody, human IgG4, V domains shown)
VH: EVQLVESGGGLVQPGVSLRLSCVASGFTFSNYDITWIRQIPGKGLEWVSRISGSGGSTYFADSVKGRFIISRDNSKNTVYMQMNSLRAEDSAVYYCARRDSVLFSMNSWLDPWGQGTLVTVSS
VL: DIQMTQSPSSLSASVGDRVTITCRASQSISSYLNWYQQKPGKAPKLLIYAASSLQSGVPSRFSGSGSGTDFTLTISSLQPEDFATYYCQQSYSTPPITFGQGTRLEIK
notes: as for B2

blockade of basophil activation (phospho-Erk MFI in basophils of PBMCs from birch allergic donors, 100 pM natural Bet v 1) (natural Bet v 1 [5]): 70% | 100 nM natural Bet v 1 Bound (RU) (natural Bet v 1 [1]): 72 RU | Kd (natural Bet v 1 [1]): 1.09 nM | 100 nM natural Bet v 1 Bound (RU) (natural Bet v 1 [2]): 83 RU | Kd (natural Bet v 1 [2]): 2.43 nM | t½ (natural Bet v 1 [2]): 6.3 min
B9: H4H17082P2 (antibody, human IgG4 S228P, kappa, V domains shown)
VH: QVQLVQSGAEVKKPGASVKVSCKASGYTFISYNIFWVRQATGQGLDWMGWMNPFRNNAGYAQKFQGRVTVTWDTSISTAYMELSSLSSEDTAIYYCAREHGSSWGFFDYWGQGTLVTVSS
VL: not shown
notes: Human IgG4; also called REGN5715; MAB2

Percent Blocking [6]: 52% | Percent Blocking [7]: 81% | Percent Blocking [8]: 79% | Percent Blocking [9]: 49% | Percent Blocking [10]: 66% | Percent Blocking [11]: 74% | Percent Blocking [12]: 56.4% | Percent Blocking [13]: 38% | Percent Blocking [14]: 51% | Percent Blocking [15]: 82.7% | Percent Blocking [16]: 82.9%
B10: H4H17082P2 (antibody, human IgG4 S228P, kappa, V domains shown)
VH: QVQLVQSGAEVKKPGASVKVSCKASGYTFISYNIFWVRQATGQGLDWMGWMNPFRNNAGYAQKFQGRVTVTWDTSISTAYMELSSLSSEDTAIYYCAREHGSSWGFFDYWGQGTLVTVSS
VL: not shown
notes: human IgG4; also called REGN5715; MAB2

100 nM Analyte Bound (RU) [4]: 20 RU
B11: H4H17082P2 (antibody, human IgG4 S228P, kappa, V domains shown)
VH: QVQLVQSGAEVKKPGASVKVSCKASGYTFISYNIFWVRQATGQGLDWMGWMNPFRNNAGYAQKFQGRVTVTWDTSISTAYMELSSLSSEDTAIYYCAREHGSSWGFFDYWGQGTLVTVSS
VL: not shown
notes: human IgG4 Fc; also called REGN5715; MAB2
